The target of assay [1] is human Broccoli Ndc80-GFP construct (human) (UniProt O14777).
The target in assay [2] is Xenopus laevis CENP-E-GFP construct (1-473 aa) (Xenopus laevis). Nature of the assay: binding of microtubules to protein-coated beads seen by fluorescence microscopy.
Assay [3] concerns the target human Broccoli Ndc80-GFP construct (human) (UniProt O14777). The assay is described as above.

Chain of UniProt O14777 (O14777 whole entry, looked up, the tested form may be a part): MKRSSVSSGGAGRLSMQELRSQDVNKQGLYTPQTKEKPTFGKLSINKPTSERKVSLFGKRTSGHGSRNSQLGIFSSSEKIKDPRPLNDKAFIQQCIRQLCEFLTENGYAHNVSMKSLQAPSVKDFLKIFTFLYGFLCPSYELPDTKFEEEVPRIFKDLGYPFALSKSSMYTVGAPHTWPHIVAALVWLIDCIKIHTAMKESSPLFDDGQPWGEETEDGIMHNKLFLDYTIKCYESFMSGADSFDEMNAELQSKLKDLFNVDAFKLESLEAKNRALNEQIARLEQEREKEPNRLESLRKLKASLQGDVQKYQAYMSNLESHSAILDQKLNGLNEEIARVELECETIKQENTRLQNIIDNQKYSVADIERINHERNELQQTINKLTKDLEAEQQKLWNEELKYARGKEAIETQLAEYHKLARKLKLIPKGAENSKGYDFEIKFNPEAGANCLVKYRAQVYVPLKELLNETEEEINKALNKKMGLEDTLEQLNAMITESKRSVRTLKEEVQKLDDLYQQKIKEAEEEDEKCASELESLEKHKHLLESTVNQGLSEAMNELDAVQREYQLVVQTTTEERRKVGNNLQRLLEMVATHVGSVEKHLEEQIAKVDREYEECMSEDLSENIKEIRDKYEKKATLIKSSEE

“microtubules polymerised from bovine brain tubulin (from UniProt Q6B856 1-445) (complex)” returned a reduction of CENP-E motor gliding velocity on beads by the Ndc80 coating in assay [1] of 4 fold. In addition, in assay [2], the MT end-retention time is 1.1 min, the percent of MT plus-ends retained at the CENP-E–coated bead turned out to be 24% and the time within which >80% of MTs detached (Kaplan–Meier) is less than 2.5 min. The same substance displayed a percent of MT segments attached via their ends to beads coated with Ndc80 alone in assay [3] of 3%.

The record behind these values is doi:10.1101/481713.
